Reference: patent US20220305056A1 (Janssen / Centocor, published 2022)
Ends that are not written are not given here.

What was measured:
[1] = target: T1, immobilized scFv containing a G4S linker; assay: ELISA and flow cytometry (FIGS. 2 and 3)
T1 construct: Antigen coated on the ELISA plate at 0.1 ug/mL
Procedure: Plates were washed 3 times with PBS. […] Plates were washed 3 times with PBS. […] Optical density at 450 nm was measured on (SpectraMax M5, Molecular Devices; San Jose, Calif.). Data was analyzed in GraphPad Prism software (Graphpad).
HEK293-T cells were cultured in standard DMEM with (Dulbecco's Modified Eagle's Medium Components comprising glucose, L-glutamine, NaHCO₃, and phenol red). Transfection of cells with mRNA for linker containing scFv protein constructs was carried out following manufacturer's protocol (MessengerMax, Invitrogen). 5 μg of IVT synthesized mRNA was transfected in HEK293-T cells at a density of 1×10⁶ cells/mL and incubated 24 hours prior to flow cytometry analysis. Cells were added to 96 well U bottom plates at a concentration of 100,000 cells/well. Plates were spun at 300 g for 3 minutes and supernatant was discarded. Sytox green (Invitrogen) Live/Dead stain was added to the cells and incubated for 10 minutes at room temperature in a dark chamber. The cells were washed twice with PBS, and the supernatant was discarded. A 12 point 1:3 serial dilution with a starting concentration of 100 nM of primary antibody was prepared. The dilution series was added to cells and incubated for 1 hour at 4° C. in the dark. Plates were spun at 300 g for 3 minutes, the supernatants discarded, and cells washed twice with FACS running buffer (Becton Dickinson (BD), Franklin Lakes, N.J.). […]

[2] = target: T2, H3-23/L1-39 scFv with (G4S)4 peptide linker; assay: bio-layer interferometry
T2 construct: also called inert scFv

[3] = target: T3, cell-surface scFv with a G4S linker (CAR-T construct on transfected HEK293T cells); assay: flow cytometry on HEK293T cells transfected with CAR-T constructs, fluorescent anti-human Fc detection
T3 construct: also called cell surface antigen; linker containing scFv protein construct
Procedure: HEK293-T cells were cultured in standard DMEM with (Dulbecco's Modified Eagle's Medium Components comprising glucose, L-glutamine, NaHCO₃, and phenol red). Transfection of cells with mRNA for linker containing scFv protein constructs was carried out following manufacturer's protocol (MessengerMax, Invitrogen). 5 μg of IVT synthesized mRNA was transfected in HEK293-T cells at a density of 1×10⁶ cells/mL and incubated 24 hours prior to flow cytometry analysis. Cells were added to 96 well U bottom plates at a concentration of 100,000 cells/well. Plates were spun at 300 g for 3 minutes and supernatant was discarded. Sytox green (Invitrogen) Live/Dead stain was added to the cells and incubated for 10 minutes at room temperature in a dark chamber. The cells were washed twice with PBS, and the supernatant was discarded. A 12 point 1:3 serial dilution with a starting concentration of 100 nM of primary antibody was prepared. The dilution series was added to cells and incubated for 1 hour at 4° C. in the dark. Plates were spun at 300 g for 3 minutes, the supernatants discarded, and cells washed twice with FACS running buffer (Becton Dickinson (BD), Franklin Lakes, N.J.). Secondary antibody (Anti human Fc, Biolegend; San Diego, Calif.) was diluted in FACS buffer according to manufacturer's protocol. 50 μl of secondary antibody was added to the cells and incubated for 30 minutes at 4° C. in the dark. […]

[4] = target: T1, immobilized scFv containing a G4S linker; assay: ELISA, scFv coated on the plate, anti-human Fc HRP detection
Procedure: MaxiSorb 96 plates (Nunc; Roskilde, Denmark) were coated with antigen at 0.1 μg/mL concentration and incubated overnight at 4° C. Plates were washed 3 times with PBS and blocked with PBS plus 5% milk powder for 1 hour at room temperature. Plates were washed 3 times with PBS. […] Plates were washed 3 times with PBS. […] Optical density at 450 nm was measured on (SpectraMax M5, Molecular Devices; San Jose, Calif.). Data was analyzed in GraphPad Prism software (Graphpad).

(G4S)4 peptide = target: T4, (G4S)4 peptide (biotinylated); assay: bio-layer interferometry, biotinylated peptide on streptavidin sensor
T4 construct: Biotinylated peptide immobilised on streptavidin biosensors for BLI; also called WT (G4S)4 peptide linker; WT G4S linker
T4 peptide: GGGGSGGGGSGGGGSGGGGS
Procedure: (§1) All reactions were performed at 25° C. in 1× kinetics buffer (ForteBio; Fremont, Calif.). Data were collected with Octet Data Acquisition program (ForteBio) and analyzed using Octet Data Analysis program (ForteBio).

SEQ ID NO 52 = target: T5, SEQ ID NO 52 (also: biotinylated); assay: bio-layer interferometry, truncated peptide panel
T5 construct: Truncation variant of the (G4S)4 linker; also called truncated G4S peptide
T5 peptide: GGGGSGGGGSGGG
Procedure: as §1

[5] = target: T6, 10-mer peptide (SEQ ID NO:55) (also: biotinylated); assay: bio-layer interferometry, truncated peptide panel
T6 construct: Truncation variant of the (G4S)4 linker; smallest linker detected by CEN-63-13; also called smallest linker
T6 peptide: GGGGSGGGGS
Procedure: as §1

SEQ ID NO 50 = target: T7, SEQ ID NO 50 (not fully specified; also: biotinylated); assay: bio-layer interferometry, truncated peptide panel
T7 construct: Truncation variant of the (G4S)4 linker; also called truncated G4S peptide; L6
T7 peptide: GGGGSGGGGSGGGGS
Procedure: as §1

SEQ ID NO 46 = target: T8, SEQ ID NO 46 (also: biotinylated); assay: bio-layer interferometry, truncated peptide panel
T8 construct: Truncation variant of the (G4S)4 linker; also called truncated G4S peptide
T8 peptide: GGGGSGGGGSGGGGSGGGG
Procedure: as §1

SEQ ID NO 48 = target: T9, SEQ ID NO 48 (also: biotinylated); assay: bio-layer interferometry, truncated peptide panel
T9 construct: Truncation variant of the (G4S)4 linker; also called truncated G4S peptide
T9 peptide: GGGGSGGGGSGGGGSGG
Procedure: as §1

SEQ ID NO 51 = target: T10, SEQ ID NO 51 (also: biotinylated); assay: bio-layer interferometry, truncated peptide panel
T10 construct: Truncation variant of the (G4S)4 linker; also called truncated G4S peptide
T10 peptide: GGGGSGGGGSGGGG
Procedure: as §1

SEQ ID NO 47 = target: T11, SEQ ID NO 47 (also: biotinylated); assay: bio-layer interferometry, truncated peptide panel
T11 construct: Truncation variant of the (G4S)4 linker; also called truncated G4S peptide
T11 peptide: GGGGSGGGGSGGGGSGGG
Procedure: as §1

SEQ ID NO 53 = target: T12, SEQ ID NO 53 (not fully specified; also: biotinylated); assay: bio-layer interferometry, truncated peptide panel
T12 construct: Truncation variant of the (G4S)4 linker; also called truncated G4S peptide
T12 peptide: GGGGSGGGGSGG
Procedure: as §1

SEQ ID NO 49 = target: T13, SEQ ID NO 49 (also: biotinylated); assay: bio-layer interferometry, truncated peptide panel
T13 construct: Truncation variant of the (G4S)4 linker; also called truncated G4S peptide
T13 peptide: GGGGSGGGGSGGGGSG
Procedure: as §1

B1: CEN-63-13 mAb (antibody, human IgG1, V domains shown)
VH: QSVKESGGRLVTPGTPLTLTCTVSGFSLSSNAIDWVRQAPGKGLEWIGILGRSGSTYYASWAKGRFTISRTSSTTVDLKITSPTTEDTATYFCARHFYLWGPGTLVTVSS
VL: AQVLTQTASPVSAAVGGTVTINCQASQSVYSNYLSWYQQKPGQPPKLLMATTSTLEPGVPSRFKGSGSGTQFTLTISDLECDDAATYYCAGGYSVDIWVFGGGTEVVVKR
notes: also called CEN-63 C13; CEN-63 C13 anti-G4S antibody
Kd [1]: 0.57 nM | Kd [2]: 8.1 nM | EC50 [3]: 0.78 nM | EC50 [4]: 0.57 nM | Kd ((G4S)4 peptide): 3.6 nM | fold decrease in binding affinity compared to WT G4S linker (SEQ ID NO 52): 2 fold | fold decrease in binding affinity compared to WT G4S linker [5]: 6 fold | fold decrease in binding affinity compared to WT G4S linker (SEQ ID NO 50): 2 fold | fold decrease in binding affinity compared to WT G4S linker (SEQ ID NO 46): 2 fold | fold decrease in binding affinity compared to WT G4S linker (SEQ ID NO 48): 2 fold | fold decrease in binding affinity compared to WT G4S linker (SEQ ID NO 51): 2 fold | fold decrease in binding affinity compared to WT G4S linker (SEQ ID NO 47): 2 fold | fold decrease in binding affinity compared to WT G4S linker (SEQ ID NO 53): 2 fold | fold decrease in binding affinity compared to WT G4S linker (SEQ ID NO 49): 2 fold
